The target of the assay is TRIM25 (UniProt Q14258). The experiment in a line: co-immunoprecipitation, Western blot. The settings on record: reference: wild type 2CARD; sites S8. (In general: Immunoblotting shows a protein as a band on a membrane.)

Regarding “RIG-I 2CARD region (CARD1 and CARD2) (from UniProt O95786) S8A”, the “binding against the reference” value is on record as “stronger”.

The record behind these values is article PMC2888438.
